Laboratory results reported in patent US20040053872, “New sequences” (published 2004).

Columns and labels:
[1] = target: T1, HIV-1 RT reference (HIV-1 subtype B (clone BH10), UniProt P03366;P03366 P03366:600-1159,P03366:600-1039); experiment: competition; BIC50, RT binding to template/primer; 33 C
[2] = target: T1, HIV-1 RT reference; experiment: inhibition; RNA-dependent DNA polymerisation, preincubated 30 min, 33 C; settings: two stem-loops (D and anticodon)
[3] = target: T1, HIV-1 RT reference; experiment: competition; BIC50, RT binding to primer; 33 C
[4] = target: T1, HIV-1 RT reference; experiment: inhibition; second strand DNA synthesis, 33 C
[5] = target: T1, HIV-1 RT reference; experiment: inhibition; RNA-dependent DNA polymerisation, 33 C; settings: hairpin
[6] = two stem-loops (D and anticodon)

| Binder | IC50 [1, 6] | IC50 [2] | IC50 [3, 6] | IC50 [4, 6] | IC50 [5] | IC50 ([1]; hairpin) | IC50 ([3]; hairpin) | IC50 ([4]; hairpin) |
| --- | --- | --- | --- | --- | --- | --- | --- | --- |
| GCUCAGUCGGUAGAGCAUCAGACUUUUAAUCUGAG (ssRNA) [compound 199] | 7 nM | 6.6 nM | 2 nM | 40 nM | – | – | – | – |
| CAGACUUUUAAUCUG (ssRNA, PS all linkages) [compound 198 (15-mer anticodon stem-loop)] | – | – | – | – | 470 nM | 900 nM | 100 nM | 550 nM |
